From the supplement of paper PMC9112550, “Optimization of the antimicrobial peptide Bac7 by deep mutational scanning” (BMC Biology, 2022)

System: Escherichia coli TOP10
Test: shrunken log2 fold change of peptide-encoding DNA abundance (4.5 h post-induction vs induction); higher = less antimicrobial activity (less host growth inhibition)
Conditions: time post-induction: 4.5 h; library: site-saturation at positions 5, 18, 19, 20
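Also: peptides expressed intracellularly from a pBAD plasmid library in pooled LB shake-flask culture, induced with 0.3% L-arabinose, DNA abundance read by NGS, three biological replicates, DESeq2 with apeglm shrinkage.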

| Sequence | shrunken log2 fold change |
| --- | --- |
| RRIRKRPPRLPRPRPRPSFLPRP | 0.104 |
| RRIRARPPRLPRPRPRPMLYPRP | 0.249 |
| RRIRVRPPRLPRPRPRPDGEPRP | 0.487 |
| RRIRMRPPRLPRPRPRPWMFPRP | 0.00324 |
| RRIRNRPPRLPRPRPRPENSPRP | -0.00522 |
| RRIRGRPPRLPRPRPRPHWYPRP | -0.0365 |
| RRIRRRPPRLPRPRPRPYMDPRP | -0.138 |
| RRIRMRPPRLPRPRPRPTYKPRP | -0.0666 |
| RRIRTRPPRLPRPRPRPVTRPRP | 0.229 |
| RRIRKRPPRLPRPRPRPEHDPRP | 0.169 |
| RRIRRRPPRLPRPRPRPIEAPRP | -0.137 |
| RRIRCRPPRLPRPRPRPIAGPRP | 0.195 |
| RRIRYRPPRLPRPRPRPEHSPRP | -0.425 |
| RRIRSRPPRLPRPRPRPLNWPRP | -0.0815 |
| RRIRCRPPRLPRPRPRPWYYPRP | -0.698 |
| RRIRYRPPRLPRPRPRPQMAPRP | -1.66 |
| RRIRHRPPRLPRPRPRPLAHPRP | 0.0514 |
| RRIRLRPPRLPRPRPRPWNPPRP | -0.059 |
| RRIRDRPPRLPRPRPRPYKHPRP | -1.13 |
| RRIRERPPRLPRPRPRPWWNPRP | -0.0135 |

| Sequence | shrunken log2 fold change |
| --- | --- |
| RRIRNRPPRLPRPRPRPWLQPRP | -0.0113 |
| RRIRFRPPRLPRPRPRPHYKPRP | -0.408 |
| RRIRIRPPRLPRPRPRPFLGPRP | 0.00585 |
| RRIRNRPPRLPRPRPRPGFVPRP | 0.135 |
| RRIRTRPPRLPRPRPRPNIPPRP | -0.593 |
| RRIRVRPPRLPRPRPRPLICPRP | -0.0443 |
| RRIRKRPPRLPRPRPRPPLVPRP | 0.598 |
| RRIRTRPPRLPRPRPRPNHLPRP | -0.15 |
| RRIRFRPPRLPRPRPRPSTIPRP | -0.45 |
| RRIRSRPPRLPRPRPRPKKKPRP | 0.195 |
| RRIRPRPPRLPRPRPRPLDYPRP | -0.495 |
| RRIRLRPPRLPRPRPRPSVNPRP | -0.822 |
| RRIRSRPPRLPRPRPRPMKNPRP | -0.145 |
| RRIRKRPPRLPRPRPRPQHEPRP | 0.198 |
| RRIRVRPPRLPRPRPRPTSCPRP | 0.961 |
| RRIRVRPPRLPRPRPRPDDRPRP | -0.0538 |
| RRIRQRPPRLPRPRPRPYKFPRP | -0.0369 |
| RRIRNRPPRLPRPRPRPTHAPRP | 0.337 |
| RRIRCRPPRLPRPRPRPHCCPRP | 0.0538 |
| RRIRCRPPRLPRPRPRPWTYPRP | -0.015 |

| Sequence | shrunken log2 fold change |
| --- | --- |
| RRIRCRPPRLPRPRPRPGQGPRP | 0.43 |
| RRIRWRPPRLPRPRPRPGAVPRP | 0.745 |
| RRIRFRPPRLPRPRPRPDINPRP | -0.302 |
| RRIRLRPPRLPRPRPRPYGIPRP | -0.00489 |
| RRIRGRPPRLPRPRPRPQGYPRP | 0.045 |
| RRIRNRPPRLPRPRPRPFIWPRP | -0.741 |
| RRIRPRPPRLPRPRPRPRKDPRP | 0.173 |
| RRIRTRPPRLPRPRPRPFLKPRP | 0.092 |
| RRIRYRPPRLPRPRPRPYPAPRP | -0.641 |
| RRIRCRPPRLPRPRPRPHEYPRP | -0.253 |
| RRIRGRPPRLPRPRPRPPNSPRP | 0.301 |
| RRIRIRPPRLPRPRPRPVEQPRP | 0.107 |
| RRIRFRPPRLPRPRPRPDPKPRP | 0.117 |
| RRIRMRPPRLPRPRPRPHTRPRP | 0.387 |
| RRIRFRPPRLPRPRPRPKPLPRP | 0.433 |
| RRIRCRPPRLPRPRPRPAARPRP | 0.392 |
| RRIRSRPPRLPRPRPRPFVFPRP | -0.102 |
| RRIRSRPPRLPRPRPRPEGHPRP | 0.0136 |
| RRIRDRPPRLPRPRPRPFFTPRP | -0.024 |
| RRIRCRPPRLPRPRPRPKPHPRP | 0.398 |
